From PMC7827474, “DnaJ Proteins Regulate WUS Expression in Shoot Apical Meristem of Arabidopsis”

Assays:
[1] = biological target: T1, MBP:WUS (Arabidopsis thaliana, UniProt Q9SB92 1-292); experiment: EMSA; EMSA: 10 mM HEPES pH 7.8, 20 mM KCl, 1 mM MgCl2, 21 mM DTT (so in the source), 7.5% glycerol, 0.5% Triton-100, 300 ng carrier DNA, 0.02% BSA, 10 uL, 22 C, 30 min; 8%; details: protein: recombinant; tags: MBP; chain copies: 2; label: Texas Red (3' end per Methods); blunt
T1 sequence: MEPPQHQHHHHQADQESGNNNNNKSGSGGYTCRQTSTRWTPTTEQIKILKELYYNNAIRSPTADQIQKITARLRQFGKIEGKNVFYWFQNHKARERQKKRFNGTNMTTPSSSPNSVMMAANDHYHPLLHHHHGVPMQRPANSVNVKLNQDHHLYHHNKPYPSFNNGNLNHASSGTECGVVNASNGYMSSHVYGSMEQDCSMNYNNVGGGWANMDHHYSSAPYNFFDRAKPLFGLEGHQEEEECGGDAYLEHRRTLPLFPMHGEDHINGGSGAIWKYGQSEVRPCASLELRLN

[2] = biological target: T2, MBP:WUS;MBP:At5g09540 (Arabidopsis thaliana;Arabidopsis …, UniProt Q9SB92;A2RVL3 1-292;1-280, |); experiment: EMSA; more efficient than WUS alone; EMSA: 10 mM HEPES pH 7.8, 20 mM KCl, 1 mM MgCl2, 21 mM DTT (so in the source), 7.5% glycerol, 0.5% Triton-100, 300 ng carrier DNA, 0.02% BSA, 10 uL, 22 C, 30 min; 8%; details: protein: recombinant;recombinant; tags: MBP;MBP; label: Texas Red (3' end per Methods); blunt
T2 sequence 1: T1 sequence
T2 sequence 2: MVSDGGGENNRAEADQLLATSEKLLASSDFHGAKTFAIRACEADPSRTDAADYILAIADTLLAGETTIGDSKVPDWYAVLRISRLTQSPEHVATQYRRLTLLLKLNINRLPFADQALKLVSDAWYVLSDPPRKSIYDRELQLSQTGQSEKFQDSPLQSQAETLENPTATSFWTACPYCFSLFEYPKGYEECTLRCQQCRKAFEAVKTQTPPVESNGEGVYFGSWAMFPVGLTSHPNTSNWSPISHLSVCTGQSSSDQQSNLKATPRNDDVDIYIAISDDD

[3] = biological target: T3, MBP:WUS;MBP:SDJ3 (Arabidopsis thaliana;Arabidopsis …, UniProt Q9SB92;F4I0F5 1-292;1-797, |); experiment: as above; details: protein: recombinant;recombinant; tags: MBP;MBP; label: Texas Red (3' end per Methods); blunt
T3 sequence 1: T1 sequence
T3 sequence 2: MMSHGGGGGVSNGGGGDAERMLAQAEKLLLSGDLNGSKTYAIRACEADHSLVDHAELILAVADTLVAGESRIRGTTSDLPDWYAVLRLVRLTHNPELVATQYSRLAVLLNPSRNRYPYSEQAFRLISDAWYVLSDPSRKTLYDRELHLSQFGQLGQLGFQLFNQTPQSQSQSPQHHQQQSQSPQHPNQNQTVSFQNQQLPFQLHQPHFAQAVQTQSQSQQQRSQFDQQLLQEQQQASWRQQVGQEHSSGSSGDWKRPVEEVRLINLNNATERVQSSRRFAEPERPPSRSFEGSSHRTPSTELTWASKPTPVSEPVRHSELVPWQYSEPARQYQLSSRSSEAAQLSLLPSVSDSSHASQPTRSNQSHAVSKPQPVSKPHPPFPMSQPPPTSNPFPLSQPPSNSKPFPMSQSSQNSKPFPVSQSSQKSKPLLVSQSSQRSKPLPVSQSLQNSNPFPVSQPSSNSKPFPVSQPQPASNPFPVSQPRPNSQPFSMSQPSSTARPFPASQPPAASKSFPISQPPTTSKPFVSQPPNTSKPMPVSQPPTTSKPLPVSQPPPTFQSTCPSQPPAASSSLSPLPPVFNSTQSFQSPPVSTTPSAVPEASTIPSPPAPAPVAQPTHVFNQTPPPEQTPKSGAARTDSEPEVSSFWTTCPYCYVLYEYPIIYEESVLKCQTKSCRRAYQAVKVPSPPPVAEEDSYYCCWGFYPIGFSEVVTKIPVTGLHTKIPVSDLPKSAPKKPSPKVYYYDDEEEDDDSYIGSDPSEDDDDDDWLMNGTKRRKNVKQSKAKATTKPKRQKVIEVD

Measured: binding result

B1: WUS promoter probe (pWUS) (dsDNA)
DNA 1: CTAGAATGAATAATAAAAAAAGTGAAAACCGTTTGATCATAA
DNA 2: TTATGATCAAACGGTTTTCACTTTTTTTATTATTCATTCTAG
binds: [1] | [2] | [3]
